From paper PMC3958920 (FEBS Open Bio, 2014)

What was measured:
SEC = target: the molecule itself; assay: SEC
purified protein [1] = substrate: O=C(O)C1=NCCC1; assay: purified protein; conditions: NADPH
purified protein [2] = substrate: O=C(O)C1=NCCCC1; assay: purified protein; conditions: NADPH
purified protein [3] = substrate: O=C(O)C1=NC[C@@H](O)C1; assay: purified protein; conditions: NADPH
purified protein [4] = substrate: O=C(O)[C@@H]1CCCCN1; assay: purified protein; conditions: NADP+
purified protein [5] = substrate: O=C(O)[C@@H]1CCCN1; assay: purified protein; conditions: NADP+
[6] = potassium phosphate pH 7.0, 30 °C
[7] = potassium phosphate pH 6.5, 30 °C

B1: CpLhpH, trans-3-hydroxy-L-proline dehydratase of Colwellia psychrerythraea 34H (enzyme, UniProt Q485S0 1-355, looked up)
chain: MTKNIAQAAVKFEQWQPKIEQESYLTINSLECHTGGEPLRIITSGFPVLKGNTILAKANDCKQNYDQLRRALMFEPRGHADMYGAIITDAERDDSHFGAVFIHNEGYSSMCGHAVIALTKTAVESGVVARTGDVTQVVIDVPCGQIYAMAYSHNNVVKHVSFQCVPSFVYAKDQQVEVDGIGMVQFDIAYGGAFYAYVQASSLGLSLVPEQQEKLIAYGRKIKQAIIPQFEINHPTTAELSFLYGVIFIDDSPNQDVHSRNVCIFADGELDRSPTGSGVSGRIALHHAKQQIVLNETITIESILASSFSVRAIETVCFAGFDAVIPEVTGDAYVCGKGQWFINAEDPLKYGFLLR
With B1 the “stoichiometry N” value (SEC) was 2.

B2: AbLhpH, trans-3-hydroxy-L-proline dehydratase of Azospirillum brasilense (enzyme, UniProt V5YXI5 1-335, looked up)
chain: MKITRSLSTVEVHTGGEAFRIVTSGLPRAPGDTIVQRRAWLKENADEIRRALMFEPRGHADMYGGYLTEPVSPNADFGVIFVHNEGYSDHCGHGVIALSTAAVELGWVQRTVPETRVGIDAPCGFIEAFVKWDGEHAGPVRFVNVPSFIWQRDVSVETPSFGTVTGDIAYGGAFYFYVDGAPFDLPVREAAVEKLIRFGAEVKAAANAKYPVVHPEIPEINHIYGTIIANAPRHPGSTQANCCVFADREVDRSPTGSGTGGRVAQLYQRGLLAAGDTLVNESIVGTVFKGRVLRETTVGDIPAVIPEVEGSAHICGFANWIVDERDPLTYGFLVR
In the case of B2, the “stoichiometry N” value (SEC) is reported as 2.

B3: PaLhpD, Pyr2C/Pip2C reductase of Pseudomonas aeruginosa (enzyme, Pseudomonas aeruginosa PAO1, UniProt Q9I492 1-334, looked up)
chain: MIRMTLDEVRELAVRILRRHAFSEAHVQAVADTLVAGERDECASHGIWRLLGCIATLKAGKVSADAEPELHDIAPGLLRVDAHGGFSQCAFRLGLPHLLEKARSQGIAAMAVNRCVHFSALWVEVEALTEAGLVALATTPSHAWVAPAGGRKPIFGTNPIAFGWPRPDGPPFVFDFATSAVARGEIQLHERAGKPIPLGWGVDEQGEPTTDASAALRGAMLTFGGHKGSALAAMVELLAGPLIGDLTSAESLAYDEGSRSSPYGGELLIAIDPRRMLGASAEEHLARAETLFEGIVEQGARLPSQRRFEARERSARDGVTIPEALHRELLALLE
With B3 the Km (purified protein [1]; [6]) was 0.447 ± 0.040 mM, the kcat (purified protein [1]; [6]) was 41.7 ± 2 s⁻¹ and the kcat/Km (purified protein [1]; [6]) was 93300 ± 3670 M⁻¹ s⁻¹. It also gave a Km (purified protein [2]; [6]) of 1.57 ± 0.3 mM, a kcat (purified protein [2]; [6]) of 35.3 ± 4.83 s⁻¹ and a kcat/Km (purified protein [2]; [6]) of 22500 ± 1130 M⁻¹ s⁻¹. It also gave a Km (purified protein [3]; [6]) of 0.835 ± 0.109 mM, a kcat (purified protein [3]; [6]) of 14.5 ± 1.18 s⁻¹ and a kcat/Km (purified protein [3]; [6]) of 17400 ± 800 M⁻¹ s⁻¹. It also gave a Km (purified protein [4]; glycine-NaOH pH 10.0, 30 °C) of 34.8 ± 4.0 mM, a kcat (purified protein [4]; glycine-NaOH pH 10.0, 30 °C) of 2.25 ± 0.233 s⁻¹ and a kcat/Km (purified protein [4]; glycine-NaOH pH 10.0, 30 °C) of 64.7 ± 0.833 M⁻¹ s⁻¹. It also gave a Km (purified protein [5]; glycine-NaOH pH 10.0, 30 °C) of 18.5 ± 2.1 mM, a kcat (purified protein [5]; glycine-NaOH pH 10.0, 30 °C) of 3.42 ± 0.3 s⁻¹ and a kcat/Km (purified protein [5]; glycine-NaOH pH 10.0, 30 °C) of 185 ± 5 M⁻¹ s⁻¹. For the same protein, the “stoichiometry N” value (SEC) was 2.

B4: AbLhpI, Δ1-pyrroline-2-carboxylate reductase of Azospirillum brasilense (enzyme, UniProt V5YW53 1-311, looked up)
chain: MTALSPIPVFDAADTAALLAYPALLATLGQAVADYAAGEIVSPERLVVPLQAGGVMLSMPSSARDLATHKLVNVCPGNGARGLPTILGQVTAYDASTGEMRFALDGPTVTGRRTAAVTALGIQALHGAAPRDILLIGTGKQAANHAEALAAIFPEARLHVRGTSADSAAAFCAAHRAQAPRLVPLDGDAIPDAIDVVVTLTTSRTPVYREAAREGRLVVGVGAFTADAAEIDANTVRASRLVVDDPAGARHEAGDLIVAQVDWQHVASLADVLGGTFDRSGPLLFKSVGCAAWDLAACRTARDALAARRAG
B4 was tested, and the Km (purified protein [1]; [7]) was 0.628 ± 0.045 mM, the kcat (purified protein [1]; [7]) was 523 ± 21.7 s⁻¹ and the kcat/Km (purified protein [1]; [7]) was 835000 ± 23300 M⁻¹ s⁻¹. For the same protein, the Km (purified protein [2]; [7]) was 0.474 ± 0.050 mM, the kcat (purified protein [2]; [7]) was 166 ± 10.2 s⁻¹ and the kcat/Km (purified protein [2]; [7]) was 352000 ± 16800 M⁻¹ s⁻¹. It also gave a Km (purified protein [3]; [7]) of 0.491 ± 0.063 mM, a kcat (purified protein [3]; [7]) of 10.3 ± 0.967 s⁻¹ and a kcat/Km (purified protein [3]; [7]) of 21200 ± 750 M⁻¹ s⁻¹. The Km (purified protein [4]; glycine-NaOH pH 10.5, 30 °C) was 6.54 ± 0.96 mM, the kcat (purified protein [4]; glycine-NaOH pH 10.5, 30 °C) was 2.5 ± 0.233 s⁻¹ and the kcat/Km (purified protein [4]; glycine-NaOH pH 10.5, 30 °C) was 383 ± 20 M⁻¹ s⁻¹. The Km (purified protein [5]; glycine-NaOH pH 10.5, 30 °C) was 3.63 ± 0.31 mM, the kcat (purified protein [5]; glycine-NaOH pH 10.5, 30 °C) was 3.92 ± 0.117 s⁻¹ and the kcat/Km (purified protein [5]; glycine-NaOH pH 10.5, 30 °C) was 1080 ± 61.7 M⁻¹ s⁻¹. The “stoichiometry N” value (SEC) was 2.

B5: CpLhpI, Δ1-pyrroline-2-carboxylate reductase of Colwellia psychrerythraea 34H (enzyme, UniProt Q485R8 1-316, looked up)
chain: MKIISAEQVHQNLNFEELIPLLKQSFSRPFSMPQRQVYSLAPEQSENHDAFALLPSWNEEVIGNKAFTYFPDNAKKHDLPGLFSKIMLFKRQTGEPLALVDGTSVTYWRTAAISALASQLLSRKNSQHLMLFGTGNLASYLVKAHLTVRDIKQVTLWGRNAKKVSKLIADFSILYPAVTFKTSVDVNAEVASADIICCATGAKTPLFDGNSVSAGCHIDCLGNHMTDARECDTTTILRARVFVDSLTNTLNEAGELLIPMAEDAFNKDEIVGELADMCKTPSMLRQSSDEITLFKSVGTAISDLVAAHSVVEKLAD
B5 was tested, and the Km (purified protein [1]; [7]) was 5.90 ± 0.36 mM, the kcat (purified protein [1]; [7]) was 124 ± 7.83 s⁻¹ and the kcat/Km (purified protein [1]; [7]) was 21170 ± 33.3 M⁻¹ s⁻¹. For the same protein, the Km (purified protein [2]; [7]) was 7.26 ± 1.22 mM, the kcat (purified protein [2]; [7]) was 1.38 ± 0.228 s⁻¹ and the kcat/Km (purified protein [2]; [7]) was 190 ± 3.33 M⁻¹ s⁻¹. For the same protein, the Km (purified protein [3]; [7]) was 8.28 ± 2.45 mM, the kcat (purified protein [3]; [7]) was 1.02 ± 0.287 s⁻¹ and the kcat/Km (purified protein [3]; [7]) was 124 ± 2.33 M⁻¹ s⁻¹. For the same protein, the Km (purified protein [4]; glycine-NaOH pH 10.5, 30 °C) was 80.1 ± 2.8 mM, the kcat (purified protein [4]; glycine-NaOH pH 10.5, 30 °C) was 0.0213 ± 0.000667 s⁻¹ and the kcat/Km (purified protein [4]; glycine-NaOH pH 10.5, 30 °C) was 0.267 ± 0.0167 M⁻¹ s⁻¹. The Km (purified protein [5]; glycine-NaOH pH 10.5, 30 °C) was 18.3 ± 2.4 mM, the kcat (purified protein [5]; glycine-NaOH pH 10.5, 30 °C) was 1.09 ± 0.115 s⁻¹ and the kcat/Km (purified protein [5]; glycine-NaOH pH 10.5, 30 °C) was 59.5 ± 1.5 M⁻¹ s⁻¹. For the same protein, the “stoichiometry N” value (SEC) was 2.

B6: C14orf149, human trans-3-hydroxy-L-proline dehydratase (enzyme, UniProt Q96EM0 1-354, looked up)
chain: MESALAVPRLPPHDPGTPVLSVVDMHTGGEPLRIVLAGCPEVSGPTLLAKRRYMRQHLDHVRRRLMFEPRGHRDMYGAVLVPSELPDAHLGVLFLHNEGYSSMCGHAVLALGRFALDFGLVPAPPAGTREARVNIHCPCGLVTAFVACEDGRSHGPVRFHSVPAFVLATDLMVDVPGHGKVMVDIAYGGAFYAFVTAEKLGLDICSAKTRDLVDAASAVTEAVKAQFKINHPDSEDLAFLYGTILTDGKDAYTKEPTTNICVFADEQVDRSPTGSGVTARIALQYHKGLLELNQMRAFKSSATGSVFTGKAVREAKCGDFKAVIVEVSGQAHYTGTASFIIEDDDPLRDGFLLK
With B6 the “stoichiometry N” value (SEC) was 2.
